Laboratory results as given in patent US20190374506A1 (BETH ISREAL DEACONESS MEDICAL CENTER, published 2019).
Blank lines part the entries; values can stand above or below the binder they belong to.

How the values were obtained:
Flag-WWP1 [1] = target: T1, Flag-WWP1 (Homo sapiens (Human), UniProt Q9H0M0 1-922); assay: co-immunoprecipitation: IP Flag, WB PTEN
T1 construct: also called full-length Flag-WWP1; recombinant Flag-WWP1; not shown: Flag tag

[2] = target: T2, WW domain containing E3 ubiquitin protein ligase 1 (WWP1) (human, UniProt Q9H0M0 1-922, limits assumed); assay: anti-PTEN immunoprecipitation from DU145 cells, western blot (FIG. 2B); both ligases found in the same complex
T2 construct: also called endogenous WWP1; WW domain-containing protein-1

[3] = target: T3, Phosphatase And Tensin Homolog Deleted On Chromosome Ten (PTEN) (human, UniProt P60484 1-403); assay: co-immunoprecipitation with anti-NEDD4 antibody from PWRE-1 cell lysates after 16 h normoxia (N) or hypoxia (H), western blot
T3 construct: also called endogenous PTEN; PTEN WT
Method: FIG. 13D is a Western blot showing that NEDD4-1 switches its interaction proteins under different physiological conditions. PWRE-1 cells were cultured in normoxic or hypoxic conditions for 16 hours. Total cell lysates were immunoprecipitated with anti-NEDD4 antibody, and then examined by western blot with indicated antibodies.
(§1) Western Blotting and Immunoprecipitation. For western blotting, cells were lysed in RIPA buffer (Boston BioProducts) supplemented with protease (Roche) and phosphatase (Roche) inhibitor. Proteins were separated on NuPAGE 4-12% Bis-Tris gradient gels (Invitrogen), transferred to polyvinylidine difluoride membranes (Immobilon P, Millipore) and the blots were probed with the indicated antibodies. For immunoprecipitation, PC3, 293T and MEF cells were transfected with the indicated expression vectors by using LIPOFECTAMIN 2000 (Life Technologies). 24 hours after transfection, cells were lysed in RIPA buffer with protease (Roche) and phosphatase (Roche) inhibitor. 500 μg of total lysates were pre-cleared for 30 minutes at 4° C., and then immunoprecipitated with anti-Myc (Cell Signaling Technology 9B11, 1:500), or anti-PTEN (Cell Signaling Technology 9559, 1:500) antibody overnight at 4° C. The Protein-A or Protein-G sepharose beads (GE Healthcare) were then added and incubated for another 2 hours. The immunoprecipitates were washed with RIPA buffer three times. […]

Flag-WWP1 [4] = target: T1, Flag-WWP1; assay: recombinant Flag-WWP1 incubated with immunopurified recombinant NEDD4-1, western blot (FIG. 2C)
Method: FIG. 2C is a Western blot showing that WWP1 binds NEDD4-1 in vitro. Recombinant Flag-WWP1 were incubated with immunopurified recombinant NEDD4-1, and then analysed by western blot.

[5] = target: T4, Flag-WWP1 ΔWW domain (deletion 341-547) (Homo sapiens (Human), UniProt Q9H0M0 1-922); assay: co-immunoprecipitation from 293 cells: IP Flag, WB PTEN
T4 construct: The two kept ranges are counted on the 922-residue WWP1 entry; not shown: Flag tag
T4 sequence: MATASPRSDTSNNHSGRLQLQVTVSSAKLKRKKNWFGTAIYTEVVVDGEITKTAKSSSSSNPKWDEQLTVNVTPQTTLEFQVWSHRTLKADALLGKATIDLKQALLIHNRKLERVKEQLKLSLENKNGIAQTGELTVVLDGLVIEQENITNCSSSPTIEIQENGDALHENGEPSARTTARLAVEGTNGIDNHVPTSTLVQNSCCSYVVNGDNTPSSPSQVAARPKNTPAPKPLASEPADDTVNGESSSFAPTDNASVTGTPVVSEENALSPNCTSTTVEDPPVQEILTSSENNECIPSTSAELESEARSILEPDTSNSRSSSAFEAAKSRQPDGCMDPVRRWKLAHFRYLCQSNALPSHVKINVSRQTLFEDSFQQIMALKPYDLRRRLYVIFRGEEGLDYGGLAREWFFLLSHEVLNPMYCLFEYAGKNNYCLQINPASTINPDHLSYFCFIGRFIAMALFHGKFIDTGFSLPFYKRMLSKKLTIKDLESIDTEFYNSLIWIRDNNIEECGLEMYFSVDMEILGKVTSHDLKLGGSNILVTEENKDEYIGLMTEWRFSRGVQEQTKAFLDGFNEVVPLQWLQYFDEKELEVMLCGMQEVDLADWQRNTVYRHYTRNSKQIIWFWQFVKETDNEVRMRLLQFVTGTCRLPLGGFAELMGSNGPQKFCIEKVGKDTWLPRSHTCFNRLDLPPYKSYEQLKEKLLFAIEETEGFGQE
Method: Lysates of 293 cells transfected with indicated constructs were analysed by immunoprecipitation and/or western blot with indicated antibodies.
as §1

[6] = target: the molecule itself; assay: self-association of PTEN in Wwp1-/- against Wwp1+/+ MEFs, non-reducing/non-denaturing gel (FIG. 5F); similar results in Nedd4-/- MEFs (FIG. 5I)
From the text: Similar results were also obtained in Nedd4^{-/-} MEFs (FIG. 5I, FIG. 5J).
as §1, with “times. In denaturing conditions, standard Laemmli-Buffer with 5% final concentration of β-mercaptoethanol was added to the samples, which were then boiled and separated on NuPAGE 4-12% Bis-Tris gradient gels (Invitrogen).” for “times.”

[7] = target: T2, WW domain containing E3 ubiquitin …; assay: immunoprecipitation of exogenous PTEN from DU145 cells, mass spectrometry (FIG. 2A)
From the text: (§2) FIG. 2A is a Western blot. Lysates from DU145 cells transfected with HA-PTEN were immunoprecipitated with an anti-PTEN antibody followed by mass-spectrometric peptide sequencing. WWP1 and NEDD4-1 were identified.
(§3) In order to identify the E3 ligases that induce PTEN atypical K27-linked poly-ubiquitination, exogenous PTEN was immunoprecipitated from DU145 cells, followed by identification of the proteins that interacted with PTEN by mass spectrometry (FIG. 2A; FIG. 18).

[8] = target: T5, Sperm-associated antigen 5 (human (endogenous protein of DU145 …, UniProt Q96R06)); assay: anti-PTEN immunoprecipitation from DU145 cells transfected with HA-PTEN, SDS-PAGE, mass-spectrometric peptide sequencing of the bands (association in the precipitate)
T5 construct: endogenous, identified by mass spectrometry
T5 sequence (looked up): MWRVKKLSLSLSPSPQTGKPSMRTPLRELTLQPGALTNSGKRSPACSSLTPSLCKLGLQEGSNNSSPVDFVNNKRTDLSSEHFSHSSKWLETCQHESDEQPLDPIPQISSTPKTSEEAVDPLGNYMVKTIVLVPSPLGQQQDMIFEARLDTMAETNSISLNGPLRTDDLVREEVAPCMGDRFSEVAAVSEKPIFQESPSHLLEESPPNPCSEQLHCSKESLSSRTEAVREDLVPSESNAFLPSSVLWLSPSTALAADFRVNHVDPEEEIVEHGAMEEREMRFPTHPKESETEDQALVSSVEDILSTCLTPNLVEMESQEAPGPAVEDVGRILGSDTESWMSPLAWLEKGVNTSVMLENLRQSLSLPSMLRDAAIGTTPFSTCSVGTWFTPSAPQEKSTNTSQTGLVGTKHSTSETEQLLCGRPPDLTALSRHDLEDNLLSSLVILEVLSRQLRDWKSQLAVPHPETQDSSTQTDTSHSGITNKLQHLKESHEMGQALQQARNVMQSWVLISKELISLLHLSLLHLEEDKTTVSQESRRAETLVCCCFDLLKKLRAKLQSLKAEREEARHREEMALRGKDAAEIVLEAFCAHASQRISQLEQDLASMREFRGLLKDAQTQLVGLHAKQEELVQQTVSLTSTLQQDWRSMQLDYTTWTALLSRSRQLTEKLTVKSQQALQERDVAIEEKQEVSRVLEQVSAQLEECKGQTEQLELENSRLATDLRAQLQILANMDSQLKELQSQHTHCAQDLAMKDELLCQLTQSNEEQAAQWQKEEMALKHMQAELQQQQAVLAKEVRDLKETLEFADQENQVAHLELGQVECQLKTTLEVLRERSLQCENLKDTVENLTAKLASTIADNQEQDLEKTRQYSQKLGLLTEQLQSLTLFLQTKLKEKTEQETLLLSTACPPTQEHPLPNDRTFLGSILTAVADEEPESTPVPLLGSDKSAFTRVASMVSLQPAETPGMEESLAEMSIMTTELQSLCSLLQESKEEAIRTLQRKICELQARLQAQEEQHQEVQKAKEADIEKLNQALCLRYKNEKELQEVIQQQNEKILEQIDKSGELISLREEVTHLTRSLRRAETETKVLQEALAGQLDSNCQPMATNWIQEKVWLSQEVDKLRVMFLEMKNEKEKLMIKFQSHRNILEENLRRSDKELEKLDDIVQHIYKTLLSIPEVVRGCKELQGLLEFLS
From the text: as §2, §3

[9] = target: Isoform 2 of Telomere-associated protein RIF1; assay: as above
Chain of Isoform 2 of Telomere-associated protein RIF1 (chain, as listed by the source limits assumed): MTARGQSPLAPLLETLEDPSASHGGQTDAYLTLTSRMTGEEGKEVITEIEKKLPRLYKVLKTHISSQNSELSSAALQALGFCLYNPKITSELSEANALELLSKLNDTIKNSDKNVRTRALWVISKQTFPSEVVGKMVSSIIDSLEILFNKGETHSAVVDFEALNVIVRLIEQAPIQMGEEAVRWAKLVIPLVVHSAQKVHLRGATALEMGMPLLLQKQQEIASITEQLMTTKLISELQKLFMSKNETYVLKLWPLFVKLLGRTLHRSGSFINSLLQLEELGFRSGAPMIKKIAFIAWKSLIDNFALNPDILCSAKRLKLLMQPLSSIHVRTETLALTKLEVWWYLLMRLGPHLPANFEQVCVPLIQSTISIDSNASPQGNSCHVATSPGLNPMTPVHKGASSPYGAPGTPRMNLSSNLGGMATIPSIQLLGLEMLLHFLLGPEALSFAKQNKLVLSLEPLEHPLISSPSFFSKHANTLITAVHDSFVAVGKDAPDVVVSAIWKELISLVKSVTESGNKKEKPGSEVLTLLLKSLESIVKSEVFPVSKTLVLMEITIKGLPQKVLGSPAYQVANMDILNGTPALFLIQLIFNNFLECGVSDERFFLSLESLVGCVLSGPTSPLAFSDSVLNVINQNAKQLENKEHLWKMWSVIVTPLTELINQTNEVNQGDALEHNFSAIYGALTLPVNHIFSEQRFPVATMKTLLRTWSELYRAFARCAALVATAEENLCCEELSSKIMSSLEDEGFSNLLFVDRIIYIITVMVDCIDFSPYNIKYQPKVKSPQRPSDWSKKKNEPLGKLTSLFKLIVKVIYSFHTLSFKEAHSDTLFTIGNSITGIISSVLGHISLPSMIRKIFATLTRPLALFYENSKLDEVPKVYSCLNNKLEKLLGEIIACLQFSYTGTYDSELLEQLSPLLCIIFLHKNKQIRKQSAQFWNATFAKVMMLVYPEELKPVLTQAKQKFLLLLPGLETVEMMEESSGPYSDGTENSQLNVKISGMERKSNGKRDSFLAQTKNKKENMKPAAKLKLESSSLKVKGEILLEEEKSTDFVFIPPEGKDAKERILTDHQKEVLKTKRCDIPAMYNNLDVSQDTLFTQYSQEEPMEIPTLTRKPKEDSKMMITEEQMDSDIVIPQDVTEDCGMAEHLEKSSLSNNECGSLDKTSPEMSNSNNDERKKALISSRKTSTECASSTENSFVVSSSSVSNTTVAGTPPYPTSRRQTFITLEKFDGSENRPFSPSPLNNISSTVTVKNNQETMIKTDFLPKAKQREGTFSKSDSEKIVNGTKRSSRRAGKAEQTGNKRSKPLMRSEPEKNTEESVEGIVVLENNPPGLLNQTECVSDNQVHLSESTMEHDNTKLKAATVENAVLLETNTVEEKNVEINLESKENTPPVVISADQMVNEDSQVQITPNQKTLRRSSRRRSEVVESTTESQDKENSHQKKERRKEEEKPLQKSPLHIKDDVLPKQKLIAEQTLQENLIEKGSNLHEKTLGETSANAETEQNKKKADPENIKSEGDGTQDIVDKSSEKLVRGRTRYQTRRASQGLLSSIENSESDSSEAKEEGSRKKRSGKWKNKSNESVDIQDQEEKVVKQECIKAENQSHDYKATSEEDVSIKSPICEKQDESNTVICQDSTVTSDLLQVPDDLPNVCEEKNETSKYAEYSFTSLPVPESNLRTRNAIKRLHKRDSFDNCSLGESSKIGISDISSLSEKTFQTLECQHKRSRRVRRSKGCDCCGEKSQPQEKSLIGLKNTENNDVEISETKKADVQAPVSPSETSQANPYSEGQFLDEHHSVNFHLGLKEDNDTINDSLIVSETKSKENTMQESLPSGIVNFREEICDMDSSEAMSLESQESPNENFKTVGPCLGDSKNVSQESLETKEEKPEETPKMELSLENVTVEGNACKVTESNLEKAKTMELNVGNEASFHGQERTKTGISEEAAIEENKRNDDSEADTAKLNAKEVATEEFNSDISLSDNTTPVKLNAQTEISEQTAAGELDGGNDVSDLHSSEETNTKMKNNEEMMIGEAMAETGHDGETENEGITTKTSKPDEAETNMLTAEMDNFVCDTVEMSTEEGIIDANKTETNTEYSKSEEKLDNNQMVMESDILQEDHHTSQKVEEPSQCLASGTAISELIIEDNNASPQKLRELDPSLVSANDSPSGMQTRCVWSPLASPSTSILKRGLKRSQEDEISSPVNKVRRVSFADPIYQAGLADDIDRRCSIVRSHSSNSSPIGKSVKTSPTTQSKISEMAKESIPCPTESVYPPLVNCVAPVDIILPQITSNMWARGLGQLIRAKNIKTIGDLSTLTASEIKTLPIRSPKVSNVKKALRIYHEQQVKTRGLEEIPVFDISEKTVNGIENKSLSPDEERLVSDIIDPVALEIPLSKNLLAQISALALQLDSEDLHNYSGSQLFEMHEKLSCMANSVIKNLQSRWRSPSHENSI
From the text: as §2, §3

[10] = target: T6, ATP dependent RNA helicase A (human (endogenous protein of DU145 …, UniProt Q08211)); assay: as above
T6 construct: endogenous, identified by mass spectrometry
T6 sequence (Q08211 whole entry): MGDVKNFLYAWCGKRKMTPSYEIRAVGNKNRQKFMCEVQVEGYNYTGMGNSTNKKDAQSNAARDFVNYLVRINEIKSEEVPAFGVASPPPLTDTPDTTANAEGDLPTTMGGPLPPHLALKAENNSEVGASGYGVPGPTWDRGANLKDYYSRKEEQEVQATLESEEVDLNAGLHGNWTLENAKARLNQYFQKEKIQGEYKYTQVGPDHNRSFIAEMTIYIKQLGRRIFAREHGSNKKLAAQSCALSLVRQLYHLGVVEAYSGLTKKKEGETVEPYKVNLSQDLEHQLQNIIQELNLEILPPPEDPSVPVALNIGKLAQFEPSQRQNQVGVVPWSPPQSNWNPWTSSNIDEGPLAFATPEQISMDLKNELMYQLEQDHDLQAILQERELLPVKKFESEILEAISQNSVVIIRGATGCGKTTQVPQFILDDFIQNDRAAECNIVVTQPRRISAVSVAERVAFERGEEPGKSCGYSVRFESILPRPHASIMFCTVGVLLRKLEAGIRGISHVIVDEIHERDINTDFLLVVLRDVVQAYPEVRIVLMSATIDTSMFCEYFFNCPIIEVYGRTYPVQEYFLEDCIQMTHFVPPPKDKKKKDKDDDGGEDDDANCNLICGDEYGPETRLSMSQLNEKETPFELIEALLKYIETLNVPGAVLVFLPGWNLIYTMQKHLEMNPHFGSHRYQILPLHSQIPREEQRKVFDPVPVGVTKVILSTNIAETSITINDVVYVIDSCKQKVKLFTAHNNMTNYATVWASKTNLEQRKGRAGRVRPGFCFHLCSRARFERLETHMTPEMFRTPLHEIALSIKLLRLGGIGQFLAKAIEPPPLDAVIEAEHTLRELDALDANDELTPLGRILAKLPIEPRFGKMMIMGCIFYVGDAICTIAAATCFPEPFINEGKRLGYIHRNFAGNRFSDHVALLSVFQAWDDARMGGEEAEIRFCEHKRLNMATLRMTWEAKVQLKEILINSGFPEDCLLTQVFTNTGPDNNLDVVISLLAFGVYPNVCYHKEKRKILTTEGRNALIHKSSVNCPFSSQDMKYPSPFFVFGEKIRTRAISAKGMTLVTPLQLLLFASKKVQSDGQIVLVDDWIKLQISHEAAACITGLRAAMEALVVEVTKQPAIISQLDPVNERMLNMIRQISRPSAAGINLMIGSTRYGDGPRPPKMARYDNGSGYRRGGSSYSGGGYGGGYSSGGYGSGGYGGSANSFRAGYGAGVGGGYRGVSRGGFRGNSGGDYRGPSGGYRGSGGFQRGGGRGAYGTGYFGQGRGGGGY
From the text: as §2, §3

[11] = target: T7, Poly [ADP-ribose] polymerase 1 (human (endogenous protein of DU145 …, UniProt P09874)); assay: as above
T7 construct: endogenous, identified by mass spectrometry
T7 sequence (P09874 2-1014 limits assumed): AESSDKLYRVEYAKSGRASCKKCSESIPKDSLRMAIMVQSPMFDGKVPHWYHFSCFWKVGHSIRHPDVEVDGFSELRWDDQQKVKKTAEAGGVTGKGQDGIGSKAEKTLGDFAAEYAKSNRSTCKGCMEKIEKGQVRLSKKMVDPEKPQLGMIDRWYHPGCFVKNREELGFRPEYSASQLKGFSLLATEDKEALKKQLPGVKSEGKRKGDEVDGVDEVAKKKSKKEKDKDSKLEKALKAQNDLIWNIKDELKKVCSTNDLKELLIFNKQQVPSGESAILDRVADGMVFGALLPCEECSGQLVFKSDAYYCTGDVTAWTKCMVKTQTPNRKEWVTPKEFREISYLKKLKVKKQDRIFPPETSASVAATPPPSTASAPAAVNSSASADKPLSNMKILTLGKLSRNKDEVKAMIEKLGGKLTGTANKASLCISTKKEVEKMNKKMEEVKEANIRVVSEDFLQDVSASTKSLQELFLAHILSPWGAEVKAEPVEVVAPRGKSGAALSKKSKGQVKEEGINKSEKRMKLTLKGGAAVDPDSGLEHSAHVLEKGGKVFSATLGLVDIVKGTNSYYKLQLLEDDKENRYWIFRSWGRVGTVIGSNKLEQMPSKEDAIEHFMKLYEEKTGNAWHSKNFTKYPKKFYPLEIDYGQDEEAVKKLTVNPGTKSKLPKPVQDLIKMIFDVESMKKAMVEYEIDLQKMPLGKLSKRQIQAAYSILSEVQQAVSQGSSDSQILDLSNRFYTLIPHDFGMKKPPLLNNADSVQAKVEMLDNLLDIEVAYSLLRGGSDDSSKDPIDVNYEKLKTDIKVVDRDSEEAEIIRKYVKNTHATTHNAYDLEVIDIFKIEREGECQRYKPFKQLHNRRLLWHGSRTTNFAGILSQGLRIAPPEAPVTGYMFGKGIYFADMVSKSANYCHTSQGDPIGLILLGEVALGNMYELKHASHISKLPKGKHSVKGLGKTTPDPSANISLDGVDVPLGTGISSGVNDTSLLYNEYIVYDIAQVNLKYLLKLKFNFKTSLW
From the text: as §2, §3

binding result [2]: binds
binding result [3]: binds
binding result (Flag-WWP1 [4]): binds
B2: Neural Precursor Cell Expressed Developmentally Down-Regulated Protein 4 polypeptide (NEDD4-1) (enzyme)
chain: MATCAVEVFGLLEDEENSRIVRVRVIAGIGLAKKDILGASDPYVRVTLYDPMNGVLTSVQTKTIKKSLNPKWNEEILFRVHPQQHRLLFEVFDENRLTRDDFLGQVDVPLYPLPTENPRLERPYTFKDFVLHPRSHKSRVKGYLRLKMTYLPKTSGSEDDNAEQAEELEPGWVVLDQPDAACHLQQQQEPSPLPPGWEERQDILGRTYYVNHESRRTQWKRPTPQDNLTDAENGNIQLQAQRAFTTRRQISEETESVDNRESSENWEIIREDEATMYSNQAFPSPPPSSNLDVPTHLAEELNARLTIFGNSAVSQPASSSNHSSRRGSLQAYTFEEQPTLPVLLPTSSGLPPGWEEKQDERGRSYYVDHNSRTTTWTKPTVQATVETSQLTSSQSSAGPQSQASTSDSGQQVTQPSEIEQGFLPKGWEVRHAPNGRPFFIDHNTKTTTWEDPRLKIPAHLRGKTSLDTSNDLGPLPPGWEERTHTDGRIFYINHNIKRTQWEDPRLENVAITGPAVPYSRDYKRKYEFFRRKLKKQNDIPNKFEMKLRRATVLEDSYRRIMGVKRADFLKARLWIEFDGEKGLDYGGVAREWFFLISKEMFNPYYGLFEYSATDNYTLQINPNSGLCNEDHLSYFKFIGRVAGMAVYHGKLLDGFFIRPFYKMMLHKPITLHDMESVDSEYYNSLRWILENDPTELDLRFIIDEELFGQTHQHELKNGGSEIVVTNKNKKEYIYLVIQWRFVNRIQKQMAAFKEGFFELIPQDLIKIFDENELELLMCGLGDVDVNDWREHTKYKNGYSANHQVIQWFWKAVLMMDSEKRIRLLQFVTGTSRVPMNGFAELYGSNGPQSFTVEQWGTPEKLPRAHTCFNRLDLPPYESFEELWDKLQMAIENTQGFDGVD
notes: also called endogenous NEDD4-1; immunopurified recombinant NEDD4-1

binding result [7]: binds
binding result [8]: binds
binding result [9]: binds
binding result [10]: binds
binding result [11]: binds
B5: HA-PTEN (enzyme)
chain: not shown
notes: Expressed in DU145 cells and immunoprecipitated with anti-PTEN antibody for mass spectrometry; also called exogenous PTEN; pcDNA3-HA-PTEN; not shown: HA tag

Second part, the binder before the results:

B1: PTEN 4E mutant (enzyme)
chain: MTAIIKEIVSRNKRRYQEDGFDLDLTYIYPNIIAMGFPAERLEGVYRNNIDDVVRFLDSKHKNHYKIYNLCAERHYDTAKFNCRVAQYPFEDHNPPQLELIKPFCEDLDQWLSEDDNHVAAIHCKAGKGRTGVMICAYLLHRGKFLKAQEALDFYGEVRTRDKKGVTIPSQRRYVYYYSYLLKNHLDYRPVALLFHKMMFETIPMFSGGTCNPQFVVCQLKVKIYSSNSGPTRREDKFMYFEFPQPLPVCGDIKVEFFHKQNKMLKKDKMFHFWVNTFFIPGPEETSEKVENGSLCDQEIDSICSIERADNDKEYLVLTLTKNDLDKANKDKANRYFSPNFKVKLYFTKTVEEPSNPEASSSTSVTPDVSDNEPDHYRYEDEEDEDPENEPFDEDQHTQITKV
notes: also called pcDNA3-Myc-PTEN 4E; phosphomimetic 4E; not shown: Myc tag by the plasmid list
binding result (Flag-WWP1 [1]): no binding

B3: Myc-PTEN (enzyme)
chain: not shown
notes: also called pcDNA3-Myc-PTEN; not shown: Myc tag
binding result [5]: no binding

B4: PTEN of MEFs (mouse) (enzyme, UniProt O08586 2-403, looked up)
chain: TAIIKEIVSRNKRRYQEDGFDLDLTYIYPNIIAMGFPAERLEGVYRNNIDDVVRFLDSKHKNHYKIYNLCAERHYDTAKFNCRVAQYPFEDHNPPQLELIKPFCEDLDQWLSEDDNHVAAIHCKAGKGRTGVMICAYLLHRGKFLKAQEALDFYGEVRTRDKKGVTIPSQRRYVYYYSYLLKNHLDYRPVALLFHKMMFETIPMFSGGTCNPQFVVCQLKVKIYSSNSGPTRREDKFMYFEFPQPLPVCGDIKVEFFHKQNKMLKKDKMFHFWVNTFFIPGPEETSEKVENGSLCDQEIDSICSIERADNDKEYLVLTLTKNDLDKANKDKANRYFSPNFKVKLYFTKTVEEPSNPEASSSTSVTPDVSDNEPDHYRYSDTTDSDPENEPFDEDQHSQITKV
notes: also called PTEN in Wwp1+/+ and Wwp1-/- MEFs; PTEN in Nedd4+/+ and Nedd4-/- MEFs
binding result [6]: binds
